Test results as given in US20160041181A1, “NMR ASSAY TO SCREEN PROTEIN-PROTEIN INTERACTION INHIBITORS” (RUTGERS, THE STATE UNIVERSITY OF NEW JERSEY, priority 2013, published 2016).
Non-standard residues stand in square brackets, D forms with d. No end group written: not given here.

Experiments:
Assay type in all cases: binding, influenza A/Udorn/307/1972 (H3N2)
[1] = biological target: T1, NS1A ED (Influenza A virus, UniProt P03495); details: 200 uM ED, 0, 50, 100, 200, 300 uM test peptide
T1 construct: made in house; host or cells: Escherichia coli BL21(DE3)-Gold, pET21_NESG vector

[2] = biological target: T1, NS1A ED; test: 1D 19F NMR assay of 5FW-labeled NS1A ED with designed peptide
Source text: In one exemplary embodiment, the candidate compound is a D-peptide having a sequence dN-Y-F-Y-S-L-F-dQ-G (see FIG. 14). The peptide has the ability to bind NS1A at the site normally used to sequester CPSF30. This same site on NS1A is also responsible for cooperative homodimerization interactions that contribute to an alternative cooperative mechanism by which ED:ED domain interactions contribute to the free energy for binding dsRNA by NS1A.
One-dimensional (1D) ^19F NMR spectroscopy was performed locked and at 20° C. on a Varian INOVA 500 MHz spectrometer equipped with a room temperature 5-mm ^1H/^19F switchable probe at a frequency of 470.18 MHz. All ^19F NMR spectra were acquired using VNMRJ 2.1B and referenced to external neat trichlorofluoromethane, CFCl3. Typical 1D ^19F NMR acquisition parameters were as follows: a 20,000 Hz sweep width (42.5 ppm), a 0.35 s acquisition time, a 5 s relaxation delay time, and a 5.0 μs 90° pulse length.
^19F NMR is an ideal assay for characterizing binding and inhibition of the NS1A protein. Using 1D ^19F NMR, it was possible to identify the binding location of a designed peptide according to its proximity to the nearest ^19F labeled Trp amino acids (see FIG. 16A vs. FIG. 16B).

[3] = biological target: T1, NS1A ED; test: Dissociation constant for homodimerization of NS1A ED (dimer-monomer equilibrium); details: low salt pH 8 buffer

T1 sequence (P03495 85-215): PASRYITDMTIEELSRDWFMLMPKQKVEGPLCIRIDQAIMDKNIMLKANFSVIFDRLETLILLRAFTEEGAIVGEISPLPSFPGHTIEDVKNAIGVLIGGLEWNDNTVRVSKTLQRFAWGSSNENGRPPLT

Substance	exchange regime at the binding site (15N-1H HSQC) ([1]; binding site)	exchange regime at other residues of the ED (15N-1H HSQC) ([1]; other residues of the ED)	exchange regime of residue W187 (15N-1H HSQC) ([1]; residue W187)	19F chemical shift change of the Trp102 and Trp203 resonances ([2]; Trp102 and Trp203, listed as dAsn-Tyr-Phe-Tyr-Ser-Leu-Phe-dGln-Gly)	19F chemical shift change of the Trp102 and Trp203 resonances ([2]; Trp102 and Trp203, listed as dN-Y-F-Y-S-L-F-dQ-G)	19F chemical shift change of the Trp187 resonance ([2]; Trp187, listed as dAsn-Tyr-Phe-Tyr-Ser-Leu-Phe-dGln-Gly)	19F chemical shift change of the Trp187 resonance ([2]; Trp187, listed as dN-Y-F-Y-S-L-F-dQ-G)	Kd [3]
dAsn-Tyr-Phe-Tyr-Ser-Leu-Phe-dGln-Gly ([dN]YFYSLF[dQ]G) [test peptide, designed D-amino acid capped peptide based on the CPSF30 helix …]	slow-exchange, indicative of strong binding	fast-exchange, or weak binding	slow-exchange indicative of tight binding	no significant impact	no chemical shift perturbations	strong ^19F chemical shift change	strong chemical shift perturbations	–
5fW NS1A ED: NS1A effector domain biosynthetically labeled with 5-fluoro-tryptophan	–	–	–	–	–	–	–	7 ± 5 µM
